In publication PMC4103454, “FAN1 Activity on Asymmetric Repair Intermediates Is Mediated by an Atypical Monomeric Virus-type Replication-Repair Nuclease Domain” (Cell Reports, 2014):

B2: tryptic fragment 795-1,012 of hFAN1_360 (domain or fragment, human, UniProt Q9Y2M0 795-1012, looked up)
chain: SVFVMEAGEAADPTTVLCSVEELALAHYRRSGFDQGIHGEGSTFSTLYGLLLWDIIFMDGIPDVFRNACQAFPLDLCTDSFFTSRRPALEARLQLIHDAPEESLRAWVAATWHEQEGRVASLVSWDRFTSLQQAQDLVSCLGGPVLSGVCRHLAADFRHCRGGLPDLVVWNSQSRHFKLVEVKGPNDRLSHKQMIWLAELQKLGAEVEVCHVVAVGAK
notes: human FAN1, protected tryptic fragment identified by mass spectrometry as amino acids 795-1,012; The three fragments are said to correspond broadly to the SAP, TPR and VRR-Nuc homology regions; also called amino acids 795–1,012; source: limited tryptic proteolysis of purified hFAN1_360 (from E. coli)

Assays:
[1] = target: saNUC, VRR-Nuc single-domain protein of Salmonella enteritidis typing phage 3 (Salmonella enteritidis typing phage 3); assay: AUC; sedimentation velocity, 50,000 rpm, 277 K, 50 mM Tris/HCl pH 8.0, 300 mM NaCl, 0.50 mM TCEP, interference optics, SEDFIT c(s) and c(M)
psNUC = assay: EMSA; conditions: stoichiometric binding at 1 nM DNA; 'indicative of a subnanomolar' KD; EMSA: 1 nM radiolabelled DNA, 20 C, 30 min, binding buffer in Supplemental Information (composition and pH not in material); 2.5% Ficoll-400, 8% native PAGE in …
stNUC = assay: EMSA; conditions: EMSA: 1 nM radiolabelled DNA, 20 C, 30 min, binding buffer in Supplemental Information (composition and pH not in material); 2.5% Ficoll-400, 8% native PAGE in …
[2] = target: stNUC, VRR-Nuc single-domain protein of Streptococcus equi bacteriophage P9 (Streptococcus equi bacteriophage P9); assay: AUC; sedimentation velocity, 50,000 rpm, 277 K, 50 mM Tris/HCl pH 8.0, 300 mM NaCl, 0.50 mM TCEP, interference optics, SEDFIT c(s) and c(M)
[3] = target: B2; assay: SEC; S200 gel filtration of a preparative scale tryptic digest of hFAN1_360; SDS-PAGE of fractions across the peak; conditions: both partners purified
[4] = target: T1, tryptic fragment 515-790 of hFAN1_360 (human, UniProt Q9Y2M0 515-790); assay: as above; conditions: both partners purified
T1 construct: human FAN1, protected tryptic fragment identified by mass spectrometry as amino acids 515-790; The three fragments are said to correspond broadly to the SAP, TPR and VRR-Nuc homology regions; also called amino acids 515–790; source: limited tryptic proteolysis of purified hFAN1_360 (from E. coli)
T1 sequence (looked up): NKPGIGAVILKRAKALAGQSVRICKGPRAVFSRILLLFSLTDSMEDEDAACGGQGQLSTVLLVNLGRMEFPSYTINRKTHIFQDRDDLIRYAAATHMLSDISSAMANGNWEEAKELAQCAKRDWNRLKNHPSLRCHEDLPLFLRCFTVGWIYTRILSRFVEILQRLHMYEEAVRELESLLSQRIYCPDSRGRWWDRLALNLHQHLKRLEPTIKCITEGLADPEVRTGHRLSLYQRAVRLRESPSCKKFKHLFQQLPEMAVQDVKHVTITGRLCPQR

[5] = target: the molecule itself; assay: AUC; sedimentation velocity as above, psNUC at concentrations above 70 uM; dimer to tetramer
[6] = target: the molecule itself; assay: AUC; sedimentation velocity, 50,000 rpm, 277 K, 50 mM Tris/HCl pH 8.0, 300 mM NaCl, 0.50 mM TCEP, interference optics, SEDFIT c(s) and c(M)

saNUC, VRR-Nuc single-domain protein of Salmonella enteritidis typing phage 3 (enzyme)
stoichiometry N [1]: 2

four-way DNA junction (HJ)
Kd (psNUC): < 1 nM
Kd (stNUC): 200 nM

stNUC, VRR-Nuc single-domain protein of Streptococcus equi bacteriophage P9 (enzyme)
stoichiometry N [2]: 2

B1: tryptic fragment 360-507 of hFAN1_360 (domain or fragment, human, UniProt Q9Y2M0 360-507, looked up)
chain: GSSCNGPGQTTGHPYYLRSFLVVLKTVLENEDDMLLFDEQEKGIVTKFYQLSATGQKLYVRLFQRKLSWIKMTKLEYEEIALDLTPVIEELTNAGFLQTESELQELSEVLELLSAPELKSLAKTFHLVNPNGQKQQLVDAFLKLAKQR
notes: human FAN1, protected tryptic fragment identified by mass spectrometry as amino acids 360-507; The three fragments are said to correspond broadly to the SAP, TPR and VRR-Nuc homology regions; also called amino acids 360–507; source: limited tryptic proteolysis of purified hFAN1_360 (from E. coli)
binding result [3]: binds
binding result [4]: binds

B2
binding result [4]: binds

B3: psNUC, VRR-Nuc single-domain protein of Psychrobacter (enzyme)
chain: RLKGLTEDEVQTVVMNWSKRQKFKGRPLFDYIHHSPNGGKRAAKIGSSGKRYSPEAAKFKRMGVKAGYPDLIIDIARGAYHGLRIEIKKDGNSYATPAQKERIEMLAKEGYCAVVAKGIDNVISVIQQYIKLGDFDGVSQLTADK
notes: psNUC, standalone VRR-Nuc domain protein of Psychrobacter, UniProt A5WF35; Synthetic gene (GeneART) in pGEX 6P-1; The structure was solved by SAD on a selenomethionine derivative; source: E. coli, purified (glutathione-Sepharose, 3C protease cleavage, Superdex gel filtration)
stoichiometry N [5]: 4
stoichiometry N [6]: 2
